Assay results as given in patent US20260234269A1.

Experiments:
[1] = target: Human Galectin-3 protein (Acro Biosystems, GA3-H5129) (human) (UniProt P17931); test: ELISA, hGal3 coated, competitor hTIM3 (FIG. 24)
[2] = target: Human Galectin-3 protein (Acro Biosystems, GA3-H5129) (human) (UniProt P17931); test: SPR Biacore T200, antibody captured, Galectin-3 analyte
[3] = target: Human Galectin-3 protein (Acro Biosystems, GA3-H5129) (human) (UniProt P17931); test: ELISA, hGal3 coated, antibody 3 ug/mL, competitor hTIM3

Chain of Human Galectin-3 protein (Acro Biosystems, GA3-H5129) (human) (P17931 2-250): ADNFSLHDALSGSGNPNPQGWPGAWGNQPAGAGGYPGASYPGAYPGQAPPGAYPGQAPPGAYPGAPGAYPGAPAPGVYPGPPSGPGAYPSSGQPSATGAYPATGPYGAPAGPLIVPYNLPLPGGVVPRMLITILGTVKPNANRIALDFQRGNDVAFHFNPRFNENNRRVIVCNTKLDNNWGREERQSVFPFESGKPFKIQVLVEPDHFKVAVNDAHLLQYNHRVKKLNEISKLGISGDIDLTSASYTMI

B1: 9H2.2H1 (antibody, from a related filing, V domains shown)
VH: QVQLQQPGAELVGPGSSVKLSCKASGYTFTNYWIHWVKQRPLQGLEWIGNIDPSDSETHYNQKFKDKATLTVDKSSSTAYMQLSSLTSEDSAVYYCARHGYYDYWGQGTTLTVSS
VL: DIVMTQSHKFMSTSVGDRVSITCKASQDVSTAVAWYQQKPGQSPKLLIYWASTRHTGVPDRFTGSGSGTDYTLTISSVQAEDLALYYCQQHYTTPLTFGAGTKLELKR
B1 gave a reduction of TIM3-GAL3 binding [1] of less than 25%, a Kd [2] of 0.0184 µM and a GAL3-TIM3 Blocking @ 3 ug/mL [3] of 6%.
